We go through one molecule from publication PMC7291361 (ACS infectious diseases, 2020).

The target in the assay is H1 SI-06 HA FLsE (Influenza A virus A/Solomon …, UniProt A7UPX0, strain). Nature of the assay: ELISA.

B1: K03.12 IgG (antibody, V domains shown)
VH: QVQLVQSGAEVKKPGASVKVSCKTSGYTFTAYYLHWVRQAPGQGFEWMAWINPNTGDTNYAQKFQGRVTLSRDTSITTAYMELTRLRSDDTAVYYCAKDLTLMYVFDSGWARGAHDYYGMDVWGQGTTVAVSG
VL: PSALTQPASVSGSPGQSVTISCTGTNSDVGTFDLVSWYQQYPGKAPKLIIYEGSRRPSGVSDRFSGSKSGNTASLTISGLQAEDEADYYCSSYAGSVVFGGGTKLTVL
For the molecule B1, the binding result is “binds”.
